We go through one substance from patent US20130143822A1, “AGENTS FOR TREATING ALZHEIMER'S DISEASE” (priority 2010, published 2013).

Experiment [1] deals with Aβ1-42 oligomers (Homo sapiens, UniProt P05067). Description: Surface plasmon resonance, Aβ1-42 monomers, oligomers and fibrils immobilized on a CM5 biosensor chip. Format: binding. As to the method: L3 is shown in section A and D3 is shown in section B of the figure. […] Aβ1-42 monomers (dashed lines), oligomers (solid lines) and fibrils (dotted line) were immobilized on a CM5 biosensor chip. Interaction analyses were carried out by means of surface […]. RU: resonance units. In each case, 25 μl peptide solution (100 μg/ml) was injected. […] The same results are also obtained for Aβ1-40 oligomers.
Sequence of Aβ1-42 oligomers (P05067 672-713 limits assumed): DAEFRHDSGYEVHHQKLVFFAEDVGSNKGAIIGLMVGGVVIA
A general note: SPR reads the build-up and loss of mass on a sensor chip optically.

Experiment [2] has as its target Aβ1-42 (Homo sapiens, UniProt P05067). The experiment can be described thus: Density gradient centrifugation (iodixanol gradient 5-50%) of Aβ-peptide mixtures, SDS-PAGE and silver staining. The class given is biochemical. Conditions: 125 μM Aβ and 125 mM peptide. As to the method:
L3 precipitates Aβ oligomers from complex mixtures of different Aβ forms. The size distributions of Aβ in solution and in Aβ-peptide mixtures were examined by way of sedimentation analysis on an iodixanol gradient (5-50%). The mixtures contained 125 μM Aβ and 125 mM peptide, respectively. After centrifugation, 14 fractions of 140 μl each were obtained from the surface by sequential pipetting and analyzed by means of denatured polyacrylamide gel electrophoresis SDS-PAGE and subsequent silver staining. […] Large aggregates form, which in subsequent experiments are described as amorphous, not fibrillary and not amyloidogenic.

Experiment [3] has as its target Aβ1-42 oligomeric particles (Homo sapiens, UniProt P05067). Description: Dynamic light scattering, hydrodynamic radius of Aβ1-42 particles. Format: biochemical. The conditions noted are these: 5 μM Aβ1-42 oligomeric particles, 50 μM L3, immediately and after 20 minutes, 25° C. As for the experimental part:
Dynamic light scattering is used to determine the hydrodynamic radius of particles in solution or suspension. A 5 μM sample of Aβ1-42 oligomeric particles was diluted by adding a 50 μM L3 sample on the one hand, and buffer (50 mM sodium phosphate, 100 mM NaCl, pH 7.4) on the other hand. The hydrodynamic radius of the Aβ1-42 particles with and without L3 was measured using a DynaPro light scattering system, immediately after the sample was prepared and after 20 minutes. A 655.6 nm laser (13 mW/58% laser intensity) was used. The measuring time was 2 seconds, and the measurement temperature was 25° C. Spherical sedimented particles were assumed for calculating the hydrodynamic radius.

Experiment [4] addresses T1, Aβ (Homo sapiens, UniProt P05067).
T1 construct: joint stock solutions made of 25 μM Aβ (light bars) and 25 μM Aβ with 1 mM L3
The experiment can be described thus: Thioflavin T test of Aβ aggregation. The class given is biochemical. The conditions noted are these: 25 μM Aβ with 1 mM L3. As to the method: (§1) Both tests were prepared from joint stock solutions made of 25 μM Aβ (light bars) and 25 μM Aβ with 1 mM L3 (dark bars). In the ThT test, 5 μl of the solutions was mixed with 200 μl ThT solution (5 μM ThT; 50 mM glycerin pH 8.5) and measured at λex 440 nm and λem=490 nm in the fluorescence spectrometer. ThT is a dye which, when bound to regular fibrils, has higher fluorescence and therefore serves as a measure of the fibrillation. In the turbidimetric test, the clouding of the solution was measured in the UV/VIS spectrometer as a measure of the aggregation as absorption at 355 nm.

In experiment [5] the target is T1, Aβ. Description: Turbidimetric test of Aβ aggregation (absorption at 355 nm). Format: biochemical. Conditions: 25 μM Aβ with 1 mM L3. As for the experimental part:
as §1

For experiment [6], the target named is T1, Aβ. The experiment can be described thus: Seeding test: amyloidogenic properties of Aβ-L3 aggregates by ThT fluorescence over time. The class given is biochemical. The conditions noted are these: seeds 20% v/v added to freshly prepared Aβ, compared with Aβ without seeds. As for the experimental part:
Amyloidogenic seeds are particles which act as “nuclei” and expedite the aggregation process. With regard to the aggregation of Aβ, it is known that existing Aβ oligomers/seeds considerably expedite the aggregation process of monomers. For the experiment, seeds were produced which consisted of Aβ (triangles) and such, which consisted of Aβ and L3 (squares). After incubating Aβ and A-L3 mixtures for 5 days, the seeds were centrifuged off and washed. The seeds (20% v/v) were added to freshly prepared Aβ in the ThT test. Aβ without seeds (rhombi) were measured for control purposes. […] This is an indication that Aβ-D3 aggregates no longer have amyloid structures.

The mark [7] stands for this setting: SPR, 25 μl peptide solution (100 μg/ml) injected.

T1 sequence (P05067 672-713 limits assumed): as above
Sequence of Aβ1-42 (P05067 672-713 limits assumed): as above
Sequence of Aβ1-42 oligomeric particles (P05067 672-713 limits assumed): as above

With “L3: L3 peptide, which according to the invention binds to Aβ oligomers (LRMMLQIKRIPR)”, in experiment [1] (setting [7]), the “binding to Aβ1-42 oligomers” value is reported as “very clear binding” and the “maximum resonance (RU) compared with D3” value is listed as “higher maximum resonance than D3”. For the same substance, the “binding strength compared with D3” value in experiment [1] (SPR, FIG. 1) was “stronger binding than D3”. Moreover, the “binding to the Aβ peptide compared with peptide D3” value in experiment [1] (general statement) is listed as “better binding”. In experiment [2], the “content of Aβ oligomers after density gradient centrifugation” value is “significantly reduce”. Further, in experiment [2] (at the analyzed time), the “reduction of Aβ oligomer content compared with D3” value is reported as “to a greater degree than D3”. Also, in experiment [3], the “formation of large Aβ aggregates (hydrodynamic radius)” value is recorded as “favorable in terms of the fast formation of large Aβ aggregates”. Moreover, the “ThT test result of the Aβ aggregates (fibrillary structure)” value in experiment [4] is “negative”. The “development of Aβ aggregates (clouding)” value in experiment [5] was “fast development of large Aβ aggregates”. In addition, the “acceleration of Aβ aggregation by seeds composed of Aβ and L3” value in experiment [6] is “do not result in any accelerated aggregation”.
